From US20250135039A1, “INHIBITOR-RESISTANT MGMT MODIFICATIONS AND MODIFICATION OF MGMT-ENCODING NUCLEIC ACIDS” (Ensoma, Inc., priority 2022, published 2025)

System: U251 human glioblastoma cell line
Experiment: in vitro FM-HCR assay of MGMT activity (mPlum O^6MeG reporter plasmid)
Type: cell-based
Details: for Reporter expression (%) mean, O^6BG: 100 μM O^6BG; for Reporter expression (%) mean, O^6BG / Reporter expression (%) mean, DMSO: U251 cells, flow cytometry 24 h after transfection, damaged/undamaged reporter, inversely related to MGMT activity; for Reporter expression (%) mean, DMSO: 0.1% DMSO; for MGMT activity (a.u.) DMSO / MGMT activity (% of WT) DMSO: DMSO condition; for MGMT activity (a.u.) DMSO / MGMT activity (a.u.) O^6BG: determined from percent reporter expression; for MGMT activity (% of WT) DMSO / MGMT activity (% of WT) O^6BG: relative to wild-type MGMT in same condition; for Relative MGMT activity (%): MGMT activity (a.u.) in O^6BG divided by DMSO x 100, higher values indicate resistance; for MGMT activity (a.u.) O^6BG / MGMT activity (% of WT) O^6BG: O^6BG condition; for Ratio percent reporter expression (O^6BG/DMSO): lower values indicate resistance to O^6BG; for O^6BG resistance relative to WT (%): percentage difference in relative MGMT activity between variant and wild-type MGMT
From the text: The present Example includes, in part, an in vitro fluorescence multiplex host cell reactivation (FM-HCR) assay in which a reporter plasmid with O^6MeG-containing oligonucleotides is used. The oligonucleotides induce transcription errors that lead to expression of fluorescent mPlum protein. Functional MGMT will repair the O^6MeG sites and reduce mPlum expression. This represents a rapid and validated assay system to assess intracellular activity of MGMT. Further description of certain such assays is found in Nagel (2014 PNAS USA 111 (18): E1823-32, which is incorporated herein by reference.
The present Example uses an in vitro FM-HCR assay in which a reporter plasmid with 0° MeG-containing oligonucleotides is used to assay MGMT activity in cells. The O^6MeG-containing oligonucleotides induce transcription errors that lead to expression of fluorescent mPlum protein. Functional MGMT will repair the O'MeG sites and reduce mPlum expression. This represents a rapid and validated assay system to assess intracellular activity of MGMT. Further description of certain such assays is found in Nagel et al., 2014 PNAS USA 111 (18): E1823-32 and Piett et al., 2021 Nat. Protoc. 16 (9): 4265-4298, each of which is incorporated herein by reference.
The in vitro FM-HCR assay was performed using the U251 human glioblastoma cell line. The cells were cultured in DMEM with 10% FBS and passaged every three days.
To express MGMT variants in the cells, plasmids encoding each MGMT variant were designed and generated by either de novo synthesis or cloning into the pTwist EF1 Alpha Puro vector at the HindII-BamHI multiple cloning site. The pTwist EF1 Alpha Puro plasmid vector drives expression of the MGMT transcript from a human EF1-alpha promoter including intron 1 and an SV40 polyadenylation signal. Plasmids encoding the MGMT variants were purified using standard molecular biology techniques from E. coli with low endotoxins. Plasmids encoding wild-type MGMT or O^6BG-resistant MGMT^P140K were also designed and generated for use as controls.
To perform the in vitro FM-HCR assay, U251 cells were seeded in 12-well plates at a density of 50,000 cells per well in 1 mL culture media. The following day, the media was changed to 1 mL of culture media containing O^6BG (100 μM O^6BG and 0.1% DMSO final) or 0.1% DMSO; and the cells were transfected with 1,000 ng of a plasmid cocktail using Lipofectamine 3000 (ThermoFisher Scientific) at 1.8 μL Lipofectamine 3000 Reagent and 2 μL P3000 reagent in Opti-MEM medium (ThermoFisher Scientific). […] For the “undamaged” condition, the plasmid cocktail replaced the mPlum O^6MeG reporter plasmid with 100 ng of a plasmid expressing mPlum. The plasmid encoding BFP was used as an internal transfection control. For transfections where no MGMT encoding plasmid is used (no pMGMT), 250 ng of additional carrier plasmid was used to maintain a total DNA amount of 1,000 ng in each transfection. Four hours after transfection, the transfection medium was changed.
All transfected cells were analyzed by flow cytometry at 24-hours after transfection. Data was analyzed as previously described in Nagel et al., 2014 PNAS USA 111 (18): E1823-32 and Piett et al., 2021 Nat. Protoc. 16 (9): 4265-4298. For each condition, normalized reporter expression was determined by taking the product of the mPlum-positive cell count and the mean mPlum fluorescence intensity in mPlum-positive cells and dividing it by the product of the BFP-positive cell count and the mean BFP fluorescence intensity in BFP-positive cells. Next, for each MGMT variant, the percent reporter expression was determined by taking the normalized reporter expression in the “damaged” condition and dividing it by the normalized reporter expression in the “undamaged” condition, and then multiplying by 100 to obtain a percent value. […]

B1: P140K: O^6BG-resistant MGMT polypeptide with K at position 140, SEQ ID NO: 8; used as control (protein)
chain: MDKDCEMKRTTLDSPLGKLELSGCEQGLHEIKLLGKGTSAADAVEVPAPAAVLGGPEPLMQCTAWLNAYFHQPEAIEEFPVPALHHPVFQQESFTRQVLWKLLKVVKFGEVISYQQLAALAGNPKAARAVGGAMRGNPVKILIPCHRVVCSSGAVGNYSGGLAVKEWLLAHEGHRLGKPGLGGSSGLAGAWLKGAGATSGSPPAGRN
modifications: REGION 1..207: note = Synthetic: MGMTP140K
notes: used as control
Reporter expression (%) mean, O^6BG: 34.8% | Reporter expression (%) mean, DMSO: 30.2% | MGMT activity (a.u.) DMSO: 3.31 a.u. | MGMT activity (% of WT) DMSO: 61.3 % of WT | Relative MGMT activity (%): 86.8% | MGMT activity (a.u.) O^6BG: 2.87 a.u. | MGMT activity (% of WT) O^6BG: 201.1 % of WT | Ratio percent reporter expression (O^6BG/DMSO): 1.15 | O^6BG resistance relative to WT (%): 228.4%

B2: L33F: MGMT polypeptide with mutation L33F (protein)
chain: MDKDCEMKRTTLDSPLGKLELSGCEQGLHEIKFLGKGTSAADAVEVPAPAAVLGGPEPLMQCTAWLNAYFHQPEAIEEFPVPALHHPVFQQESFTRQVLWKLLKVVKFGEVISYQQLAALAGNPKAARAVGGAMRGNPVPILIPCHRVVCSSGAVGNYSGGLAVKEWLLAHEGHRLGKPGLGGSSGLAGAWLKGAGATSGSPPAGRN
Reporter expression (%) mean, O^6BG: 77.0% | Reporter expression (%) mean, DMSO: 14.3% | MGMT activity (a.u.) DMSO: 6.98 a.u. | MGMT activity (% of WT) DMSO: 129.1 % of WT | Relative MGMT activity (%): 18.6% | MGMT activity (a.u.) O^6BG: 1.30 a.u. | MGMT activity (% of WT) O^6BG: 90.9 % of WT | Ratio percent reporter expression (O^6BG/DMSO): 5.37 | O^6BG resistance relative to WT (%): −29.6%

B3: L33R: MGMT polypeptide with mutation L33R (protein)
chain: MDKDCEMKRTTLDSPLGKLELSGCEQGLHEIKRLGKGTSAADAVEVPAPAAVLGGPEPLMQCTAWLNAYFHQPEAIEEFPVPALHHPVFQQESFTRQVLWKLLKVVKFGEVISYQQLAALAGNPKAARAVGGAMRGNPVPILIPCHRVVCSSGAVGNYSGGLAVKEWLLAHEGHRLGKPGLGGSSGLAGAWLKGAGATSGSPPAGRN
Reporter expression (%) mean, O^6BG: 58.3% | Reporter expression (%) mean, DMSO: 15.0% | MGMT activity (a.u.) DMSO: 6.67 a.u. | MGMT activity (% of WT) DMSO: 123.3 % of WT | Relative MGMT activity (%): 25.7% | MGMT activity (a.u.) O^6BG: 1.71 a.u. | MGMT activity (% of WT) O^6BG: 120.0 % of WT | Ratio percent reporter expression (O^6BG/DMSO): 3.89 | O^6BG resistance relative to WT (%): −2.7%

B4: L33Y: MGMT polypeptide with mutation L33Y (protein)
chain: MDKDCEMKRTTLDSPLGKLELSGCEQGLHEIKYLGKGTSAADAVEVPAPAAVLGGPEPLMQCTAWLNAYFHQPEAIEEFPVPALHHPVFQQESFTRQVLWKLLKVVKFGEVISYQQLAALAGNPKAARAVGGAMRGNPVPILIPCHRVVCSSGAVGNYSGGLAVKEWLLAHEGHRLGKPGLGGSSGLAGAWLKGAGATSGSPPAGRN
Reporter expression (%) mean, O^6BG: 77.3% | Reporter expression (%) mean, DMSO: 17.0% | MGMT activity (a.u.) DMSO: 5.88 a.u. | MGMT activity (% of WT) DMSO: 108.8 % of WT | Relative MGMT activity (%): 22.0% | MGMT activity (a.u.) O^6BG: 1.29 a.u. | MGMT activity (% of WT) O^6BG: 90.6 % of WT | Ratio percent reporter expression (O^6BG/DMSO): 4.54 | O^6BG resistance relative to WT (%): −16.7%

B5: L33K: MGMT polypeptide with mutation L33K (protein)
chain: MDKDCEMKRTTLDSPLGKLELSGCEQGLHEIKKLGKGTSAADAVEVPAPAAVLGGPEPLMQCTAWLNAYFHQPEAIEEFPVPALHHPVFQQESFTRQVLWKLLKVVKFGEVISYQQLAALAGNPKAARAVGGAMRGNPVPILIPCHRVVCSSGAVGNYSGGLAVKEWLLAHEGHRLGKPGLGGSSGLAGAWLKGAGATSGSPPAGRN
Reporter expression (%) mean, O^6BG: 62.3% | Reporter expression (%) mean, DMSO: 16.0% | MGMT activity (a.u.) DMSO: 6.25 a.u. | MGMT activity (% of WT) DMSO: 115.6 % of WT | Relative MGMT activity (%): 25.7% | MGMT activity (a.u.) O^6BG: 1.61 a.u. | MGMT activity (% of WT) O^6BG: 112.4 % of WT | Ratio percent reporter expression (O^6BG/DMSO): 3.89 | O^6BG resistance relative to WT (%): −2.7%

B6: L33W: MGMT polypeptide with mutation L33W (protein)
chain: MDKDCEMKRTTLDSPLGKLELSGCEQGLHEIKWLGKGTSAADAVEVPAPAAVLGGPEPLMQCTAWLNAYFHQPEAIEEFPVPALHHPVFQQESFTRQVLWKLLKVVKFGEVISYQQLAALAGNPKAARAVGGAMRGNPVPILIPCHRVVCSSGAVGNYSGGLAVKEWLLAHEGHRLGKPGLGGSSGLAGAWLKGAGATSGSPPAGRN
Reporter expression (%) mean, O^6BG: 57.7% | Reporter expression (%) mean, DMSO: 14.3% | MGMT activity (a.u.) DMSO: 6.98 a.u. | MGMT activity (% of WT) DMSO: 129.1 % of WT | Relative MGMT activity (%): 24.9% | MGMT activity (a.u.) O^6BG: 1.73 a.u. | MGMT activity (% of WT) O^6BG: 121.4 % of WT | Ratio percent reporter expression (O^6BG/DMSO): 4.02 | O^6BG resistance relative to WT (%): −6.0%

B7: L33P: MGMT polypeptide with mutation L33P (protein)
chain: MDKDCEMKRTTLDSPLGKLELSGCEQGLHEIKPLGKGTSAADAVEVPAPAAVLGGPEPLMQCTAWLNAYFHQPEAIEEFPVPALHHPVFQQESFTRQVLWKLLKVVKFGEVISYQQLAALAGNPKAARAVGGAMRGNPVPILIPCHRVVCSSGAVGNYSGGLAVKEWLLAHEGHRLGKPGLGGSSGLAGAWLKGAGATSGSPPAGRN
Reporter expression (%) mean, O^6BG: 54.7% | Reporter expression (%) mean, DMSO: 12.3% | MGMT activity (a.u.) DMSO: 8.11 a.u. | MGMT activity (% of WT) DMSO: 150.0 % of WT | Relative MGMT activity (%): 22.6% | MGMT activity (a.u.) O^6BG: 1.83 a.u. | MGMT activity (% of WT) O^6BG: 128.0 % of WT | Ratio percent reporter expression (O^6BG/DMSO): 4.43 | O^6BG resistance relative to WT (%): −14.6%
